From IntAct's records for PubMed 23104057

B1: Neuropilin-1 (Mus musculus), P97333 (parent)
chain: MERGLPLLCATLALALALAGAFRSDKCGGTIKIENPGYLTSPGYPHSYHPSEKCEWLIQAPEPYQRIMINFNPHFDLEDRDCKYDYVEVIDGENEGGRLWGKFCGKIAPSPVVSSGPFLFIKFVSDYETHGAGFSIRYEIFKRGPECSQNYTAPTGVIKSPGFPEKYPNSLECTYIIFAPKMSEIILEFESFDLEQDSNPPGGMFCRYDRLEIWDGFPEVGPHIGRYCGQKTPGRIRSSSGVLSMVFYTDSAIAKEGFSANYSVLQSSISEDFKCMEALGMESGEIHSDQITASSQYGTNWSVERSRLNYPENGWTPGEDSYKEWIQVDLGLLRFVTAVGTQGAISKETKKKYYVKTYRVDISSNGEDWISLKEGNKAIIFQGNTNPTDVVLGVFSKPLITRFVRIKPVSWETGISMRFEVYGCKITDYPCSGMLGMVSGLISDSQITASNQADRNWMPENIRLVTSRTGWALPPSPHPYTNEWLQVDLGDEKIVRGVIIQGGKHRENKVFMRKFKIAYSNNGSDWKTIMDDSKRKAKSFEGNNNYDTPELRTFSPLSTRFIRIYPERATHSGLGLRMELLGCEVEAPTAGPTTPNGNPVDECDDDQANCHSGTGDDFQLTGGTTVLATEKPTIIDSTIQSEFPTYGFNCEFGWGSHKTFCHWEHDSHAQLRWSVLTSKTGPIQDHTGDGNFIYSQADENQKGKVARLVSPVVYSQSSAHCMTFWYHMSGSHVGTLRVKLRYQKPEEYDQLVWMVVGHQGDHWKEGRVLLHKSLKLYQVIFEGEIGKGNLGGIAVDDISINNHISQEDCAKPTDLDKKNTEIKIDETGSTPGYEGEGEGDKNISRKPGNVLKTLDPILITIIAMSALGVLLGAVCGVVLYCACWHNGMSERNLSALENYNFELVDGVKLKKDKLNPQSNYSEA
partner: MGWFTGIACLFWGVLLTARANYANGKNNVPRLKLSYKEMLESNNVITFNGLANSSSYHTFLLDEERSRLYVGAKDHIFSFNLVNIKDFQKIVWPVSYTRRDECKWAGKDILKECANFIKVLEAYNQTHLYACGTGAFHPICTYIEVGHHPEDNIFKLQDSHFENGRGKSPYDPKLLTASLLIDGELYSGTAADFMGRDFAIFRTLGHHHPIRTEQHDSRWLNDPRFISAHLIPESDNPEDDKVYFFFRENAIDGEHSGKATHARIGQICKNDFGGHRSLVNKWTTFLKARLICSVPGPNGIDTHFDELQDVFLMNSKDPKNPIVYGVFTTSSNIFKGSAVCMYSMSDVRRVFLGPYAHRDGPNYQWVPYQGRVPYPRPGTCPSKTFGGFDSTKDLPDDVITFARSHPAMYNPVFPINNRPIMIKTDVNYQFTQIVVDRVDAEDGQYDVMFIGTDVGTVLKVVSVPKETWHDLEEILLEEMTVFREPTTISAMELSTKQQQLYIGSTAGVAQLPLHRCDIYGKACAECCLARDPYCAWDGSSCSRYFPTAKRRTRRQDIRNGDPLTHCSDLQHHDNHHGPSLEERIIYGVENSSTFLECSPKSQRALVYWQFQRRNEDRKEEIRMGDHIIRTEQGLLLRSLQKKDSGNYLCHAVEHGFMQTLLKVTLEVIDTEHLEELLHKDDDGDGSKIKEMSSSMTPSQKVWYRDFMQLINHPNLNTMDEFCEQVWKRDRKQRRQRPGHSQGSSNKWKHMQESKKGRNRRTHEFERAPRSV
B2: Neuropilin-1 (Mus musculus), P97333 (parent)
chain: B1 chain
B3: Semaphorin-3A (Mus musculus), O08665 (parent)
chain: B1 partner
B4: Plexin-A2 (Mus musculus), P70207 (parent)
chain: MEQRRFYLRAMQADNLSVVLLSVAWLLLARGTTGMPQYSTFHSENRDWTFNHLTVHRRTGAVYVGAINRVYKLTGNLTIQVAHKTGPEEDNKACYPPLIVQPCSEVLTLTNNVNKLLIIDYSENRLLACGSLYQGVCKLLRLDDLFILVEPSHKKEHYLSSVNKTGTMYGVIVRSEGEDGKLFIGTAVDGKQDYFPTLSSRKLPRDPESSAMLDYELHSDFVSSLIKIPSDTLALVSHFDIFYIYGFASGGFVYFLTVQPETPDGMAINSAGDLFYTSRIVRLCKDDPKFHSYVSLPFGCTRAGVEYRLLQAAYLAKPGEALAQAFNISSDEDVLFAIFSKGQKQYHHPPDDSALCAFPIRAINLQIKERLQSCYHGEGNLELNWLLGKDVQCTKAPVPIDDNFCGLDINQPLGGSTPVEGLTLYTTSRDRLTSVASYVYNGYSVVFVGTKSGKLKKIRADGPPHGGVQYEMVSVFKDGSPILRDMAFSINQLYLYVMSERQVTRVPVESCEQYTTCGECLSSGDPHCGWCALHNMCSRRDKCQRAWEANRFAASISQCMSLEVHPNSISVSDHSRLLSLVVNDAPNLSEGIACAFGNLTEVEGQVSGSQVICISPGPKDVPVIPLDQDWFGLELQLRSKETGKIFVSTEFKFYNCSAHQLCLSCVNSAFRCHWCKYRNLCTHDPTTCSFQEGRINVSEDCPQLVPTEEILIPVGEVKPITLKARNLPQPQSGQRGYECVLSIQGAVHRVPALRFNSSSVQCQNSSYQYDGMDISNLAVDFAVVWNGNFIIDNPQDLKVHLYKCAAQRESCGLCLKADHKFECGWCSGERRCTLHQHCPSTSSPWLDWSSHNVKCSNPQITEILTVSGPPEGGTRVTIHGVNLGLDFSEIAHHVQVAGVPCTPIPGEYIIAEQIVCEMGHAVIGTTSGPVRLCIGECKPEFMTKSHQQYTFVNPSVLSLSPIRGPESGGTMVTITGHYLGAGSSVAVYLGNQTCEFYGRSMNEIVCVSPPSSNGLGPVPVSVSVDRARVDSSLQFEYIDDPRVQRIEPEWSITSGHTPLTITGFNLDVIQEPRVRVKFNGKESVNVCTVVNTTTLTCLAPSLTSDYRPGLDTVERPDEFGFLFNNVQSLLIYNDTKFIYYPNPTFELLSPTGILDQKPGSPIILKGKNLCPPASGGAKLNYTVMIGETPCTVTVSETQLLCEPPNLTGQHKVMVHVGGMVFSPGSVSVISDSLLTLPAIISIAAGGSLLLIIVIIVLIAYKRKSRENDLTLKRLQMQMDNLESRVALECKEAFAELQTDINELTSDLDRSGIPYLDYRTYAMRVLFPGIEDHPVLRELEVQGNGQQHVEKALKLFAQLINNKVFLLTFIRTLELQRSFSMRDRGNVASLIMTGLQGRLEYATDVLKQLLSDLIDKNLENKNHPKLLLRRTESVAEKMLTNWFAFLLHKFLKECAGEPLFMLYCAIKQQMEKGPIDAITGEARYSLSEDKLIRQQIEYKTLILNCVNPDNENSPEIPVKVLNCDTITQVKEKILDAVYKNVPYSQRPRAVDMDLEWRQGRIARVVLQDEDITTKIEGDWKRLNTLMHYQVSDRSVVALVPKQTSSYNIPASASISRTSISRYDSSFRYTGSPDSLRSRVPMITPDLESGVKVWHLVKNHDHGDQKEGDRGSKMVSEIYLTRLLATKGTLQKFVDDLFETLFSTVHRGSALPLAIKYMFDFLDEQADRHSIHDTDVRHTWKSNCLPLRFWVNVIKNPQFVFDIHKGSITDACLSVVAQTFMDSCSTSEHRLGKDSPSNKLLYAKDIPSYKNWVERYYADIAKLPAISDQDMNAYLAEQSRLHATEFNMLSALNEIYSYVSKYSEELIGALEQDEQARRQRLAYKVEHLINAMSIES

Variants of: B1
Conditions: with sem3a_mouse Sema3a

| effect of a mutation on the interaction | Variant |
| --- | --- |
| disrupting interaction strength | P73A;H74S |

Variants of: B2
Conditions: with plxa2_mouse Plxna2, P70207

| effect of a mutation on the interaction | Variant |
| --- | --- |
| disrupting interaction strength | P73A;H74S |

Variants of: B3
Conditions: with nrp1_mouse Nrp1, P97333

| effect of a mutation on the interaction | Variant |
| --- | --- |
| decreasing interaction strength | L353N;P355S |

Variants of: B4
Conditions: with nrp1_mouse Nrp1, P97333

| effect of a mutation on the interaction | Variant |
| --- | --- |
| decreasing interaction strength | F275N |
